Measured values published in paper PMC8205142.

Target: recombinant venestatin (Strongyloides venezuelensis)
Assay: ELISA; r-venestatin (4 ug/mL) coated on wells; RAGE or TLR4 (0-4 ug/mL) in buffer A (50 mM Tris-HCl pH 7, 10 mM NaCl, 5 mM CaCl2), ambient temperature, 1 h; detected with anti-RAGE or anti-TLR4 antibodies; KD by Scatchard plot

recombinant human RAGE (receptor for advanced glycation end products) (from UniProt Q15109 23-342)
Kd: 43.6 nM
